Assay: soluble on expression in E. coli; label from the status in PepcDB or PDB records

For “LALMSAAKLPKSFVWGYATAAYQIEGSPDKDGREPSIWDTFCKAPGKIADGSSGDVATDSYNRWREDVQLLKSYGVKAYRFSLSWSRIIPKGGRSDPVNGAGIKHYRTLIEELVKEGITPFVTLYHWDLPQALDDRYGGWLNKEEAIQDFTNYAKLCFESFGDLVQNWITFNEPWVISVMGYGNGIFAPGHVSNTEPWIVSHHIILAHAHAVKLYRDEFKEKQGGQIGITLDSHWLIPYDDTDASKEATLRAMEFKLGRFANPIYKGEYPPRIKKILGDRLPEFTPEEIELVKGSSDFFGLNTYTTHLVQDGGSDELAGFVKTGHTRADGTQLGTQSDMGWLQTYGPGFRWLLNYLWKAYDKPVYVTENGFPVKGENDLPVEQAVDDTDRQAYYRDYTEALLQAVTEDGADVRGYFGWSLLDNFEWAEGYKVRFGVTHVDYETQKRTPKKSAEFLSRWFKEHIEE”, the “soluble on expression in E. coli” value was “soluble”.

For “GSMAWHLGIRSQSRPNDIMAEVCRAIKQLDYEWKVVNPYYLRVRRKNPVTSTFSKMSLQLYQVDSRTYLLDFRSIDDEITEAKSGTATPQRSGSISNYRSCQRSDSDAEAQGKPSEVSLTSSVTSLDSSPVDVAPRPGSHTIEFFEMCANLIKILAQ”, the “soluble on expression in E. coli” value was “soluble”.

For “MGSDKIHHHHHHMSVISENVKYFRKQLGFTQEQLAQRIGIKRSLLGAYEEGRAEPGLETLTILARLFETTVDALISETLSDPGKRKEAMSKDIEGKKLRVLAITVDKDDKENIQLVPEKAAAGYLNGYADPEYVAELPQFYLPIFSGSGTYRAFEIKGDSMLPLASGSLIIGQYVDNWSSVKDQQTYILVTATEGIVYKRIYNNIKKNETLKLVSDNPAYEPYDIHVENVIEIWESKAYISTDFPKPDMSVEKLTAIVSGLQKQMNKLSND”, the “soluble on expression in E. coli” value was “not soluble”.

In the case of “MGSDKIHHHHHHMTNDAIVIGSGIGGLVTATQLAAKGAKVLVLERYLIPGGSAGYFERQGYRFDVGASMIFGLGQNGTTNLLTRALTAVNVSQDAIADPVQIHYHLPQGLDLKVDRVYEKFLQNLIAHFPHEEKGIRRFYDECQKVFKCLNSMDLLSLEEPWYLLRVFFQHPLACLGLVKYLPQNAGDFARRYIKDPKLLKFIDMECYCWSVVPSDMTPMINAGMVFSDRHYGGVNYPKGGVGQIAQKLVEGLEKAGGKIQYKARVTKILTEKGKAVGVQLANGKVYRGKRIVSNATRWDTFEQLLPAEEMPLNEKKWQQNYQKSPSFLSLHIGVKESVLPVGTECHHILLEGWEKMTAVEGTIFVSIPTLLDPDLAPSGYHIIHAFTPHWIDDWQELSPSEYKAKKEEAAGRIIDRLEKIFPGLDAGLDYLEVGTPRTHRRFLGRQDGSYGPIPRRKLRGLLKMPFNRTAIPGLYCVGDSTFPGQGLNAVAFSGFACAHRIAVDLGF”, the “soluble on expression in E. coli” value is reported as “not soluble”.

With “HRPKRIESAVISSFSPVINSPMRDYLGKGLDHLATHSRYDMGRLINDTIGKHLPSLFKRFNYRHVSTLDGHEYDQMHYHFSQILELDPDNYLTAGQQIKAPVLFINGAWDEYTSASDATQFSRYLQNCSFSTIEATGHFLDMEHKAACNDSKQALMKFLQ” the “soluble on expression in E. coli” value was “not soluble”.

For “TPDFGFTLRGNFTYSKNKVQNWEQAYLEYPYLEYNNFPYNSIRGYQAVGLFKDEDDIKYSPKQTFGEVMPGDIKYKDINGDGMVDKLDMVPLTHSTYPLLMYGLGAEIRYKNLTLGVLFKGTGKTSFFYVGQKTTVNDETRLNGMGYMPFFEGNTGNVLTLAANPVNRWIPRDYAIAHGIDPSLAENPNARFPRLQYGNNSNNSQLSTFWQGDSRYIRLQEITLNYHLATAFLRRIGVSSLDIQFVGNNLYVWDKVKLFDPEQARWNGRVYPIPSTYSLQLYVNL”, the “soluble on expression in E. coli” value was “not soluble”.

In the case of “MRTSNYLLSTLKETPNDAEVVSHQLMLRAGMIRKLASGLYTWLPTGLRVLRKVENIVRQEIDNAGAVETLMPVVQPFELWEETGRSEKMGPELLRFTDRHVRPFVLSPTAEEVITSLVRNEVSSYKQLPLNLYQIQTKFRDERRPRFGVMRAREFCMMDAYSFDIDKAGLEKSYQAMHDAYCKAFDRMGLEYRPVLADSGAIGGSGSQEFHVLADSGEDLIAFSTESDYAANIEKAEALAPAVERAEPTQEMTLVDTPNAKTIAELVEQHGLPIEKTVKTLFVKASDEIDAPIIALIVRGDHELNEVKAENLPQVASPLEMASEEEIRELIGAGPGSLGPVGLELPFIVDRSVAVMSDFGAGANIDGKHYFGINWGRDVELGQVEDLRNVVEGDPSPCGKGTLMLK”, the “soluble on expression in E. coli” value is reported as “not soluble”.

In the case of “MGSDKIHHHHHHMKVTLIGIDLAKNVLQVCGVNQVGKTLFNRTVKRTQLLKTLVQYPDAVIAMEACSGSNYWGRELLSRGFEVKLIPPQHVKPFVKGNKNDRNDAFAICEAAMRPNIIFVKPRTLAQVDIIISHRIRERRIRVRTALTNQIRGLLSEYGIVIPKGRDPLNLALPELLEDADNSLTTTARRYIRELLDELYAINASIKALEKEIRLQARNHEDTKRLTAIRGVAEIIATASVSFAGDGSGYQNGRHFSANLGLVPKEFSSGGKQKLGAITKRGNSYLRRQLIQGAWSVIRYAKNNDDRLSVWARKVIERRGKQKAAVAVANKLARIIWAMLYYKTEYRPS”, the “soluble on expression in E. coli” value is reported as “not soluble”.

In the case of “SLNQDEKRTFRLEKEQELRFEVSNENKVYLTLQSGTAEVFGIELPKKKPVELCDTKLAVFTWQGCELQLQGITDLEYVANETPMHLYLKAHYLLDSMRRKARQQGTKGPKVVIVGPQDSGKSSLCQILSCYAMKGGKKILYASIDFQQGSFSIPGAIGASSVEHVTIEDGMIFENNLVYFYGHTVASENPRLLEKLVSNLSNLLDAKLEDSEMDLGHMGFIADSFGSLDGSNYDVLKQVLKEIKANVIIVLGSERLYADIQRDLCSEQRQIIQLPKSGGVVGRDQYLRRRLQEMQLRCYFYGSDGNLNPFTTVVTFDQVHIVRVGIGLHVPATALPLGAQSTLDPLQISQVTPSTELLHCMLGVSQAEEEEQIVDSPVYGFVHVAKVDISKRTISLLAPSPGKLPGSFLVMGSIRWLE”, the “soluble on expression in E. coli” value is reported as “soluble”.

In the case of “MLTSDPSESTAHLQRTISNLSARNAKLAELLKASRDKLSILQDQLEDLAAPPSTYGTFLEFSGGRETAEVFTAGRHMRLRISPDVEKAELVPGVQVRLGEASQVVEVCDISTTGQLATLVELLADNRGLICDHTGEERVVKLAAALTEGVDKLPKAGDTLLVDPRAGYAFEVIPKTEVSTLA”, the “soluble on expression in E. coli” value is reported as “soluble”.

With “MGSDKIHHHHHHMPELTEFQKKRLENIKRNNDLLKKLHLSGVASQIKHEAGVLEKSRAPAKKKQKTTNTRATKSASPTLPTRRSRRLRGESADDVKGIPNVNDNQLLKMGSPDGQDKNFIDAIKEKPVIGDVKLSDLIKDEDESALLEKFKRFNNGNFSSGDFFEEIKKRQGDVTGMDEFDLDLYDVFQPNEIKITYERISATYFHPAMEKKLIIAGDTSGTVGFWNVRDEPLADSEEDRMEEPDITRVKLFTKNVGRIDCFPADTSKILLTSYDGSIRSVHLNNLQSEEVLTLKNEYDDSLGISDCQFSYENPNVLFLTTLGGEFTTFDTRVKKSEYNLRRLADKKIGSMAINPMRPYEIATGSLDRTLKIWDTRNLVKKPEWSQYEDYPSHEIVSTYDSRLSVSAVSYSPTDGTLVCNGYDDTIRLFDVKSRDHLSAKLEPKLTIQHNCQTGRWTSILKARFKPNKNVFAIANMKRAIDIYNSEGQQLAHLPTATVPAVISWHPLRNWIAGGNSSGKIFLFTDDSGTIKQEE” the “soluble on expression in E. coli” value was “not soluble”.

With “MSLDNKNKSEVQAQETVQVSYKEKNRESSLASALDVLSRFGGFNFLESTVDGVQNLNPERKARKKIFLTDEQKQEEREVLKNKIDMWIDLLNSSSAVTEMIATSKAKSEAAASHLAKSQLVAVQSVRDMEQAYRGVMLFYKNTEADKVNNVTIVNASKEQLTDLDNPRFIDFVARELKQNYDKLDLRQNYSLLAIPGYLGSNKVLEKWAKIAYENKVMLYTDFADLDKPEDVVELFSSSNMASGEAFKSNTCMTCNWLVGRAGYREIGEEEDLHVSPSIALMGKVYTTLMSQVTAGKKYGGINEIDAVVFPLKKSEISQLEKMGLIPMVNEYGKVMAFSAKTLFNGDNLGLQTYSVVRVFDYITKVLFDFLNRRSFENWSSKTERDLRGQIVQYLDSVQGADRLIEKFKIIRFEQDQKQKDRIYLDIHMTPFFPAKSFVIKLDGTKGDDGTNWNTNYEEGHHHHHH” the “soluble on expression in E. coli” value was “not soluble”.

With “MGSDKIHHHHHHMQLVFDFPVNPKYSLDNFVICSGNETAYRFVRRLTDDEGAENLLYLHGPSGSGKTHLLMAIGAHFSARAGLSSVPCISFKDVDEVYGGEYPAEAVSKLAERFRNAPALLVDDLHLIPDQQAVRVELWQLFNDFYQAGRPIAITGLYPPKELPTIDDHLISRLLWGLVARVDISDDDSRRLIMKKLADDRQIVLPADVIDYLLLHVRRDVPSLIEALDAISRYALAAKRKVSVRLAREALAFHS” the “soluble on expression in E. coli” value was “not soluble”.

In the case of “MDMDEKDVVETEEESFAELFEKSNSETQRLRPGSKVEGKILKIGAEWVFIDIGKKGEGVMERKELQDAEGNLTVAEGDTITAWFTGSVRNEMRFTTKLGAGAAANAQLEEAHRSGIPVEGFVVKEIKGGFEVRLSGTTRAFCPFSQISLRRAENPAEFVGKHLLFKVTEYSERGRNIVLSHRQILEEEQRVKREALKEVLLEGMTVTGTVTRLADFGAFVDLGGVDGLIPVSEVGWTRVKHVRDVLSVGEQVSVVIKKIDWEAGKISLSLKDTLADPWTTVAEQFPEGSYHTGTVARLAAFGAFVTLAPGIDGLIHISKLGKGKRINHPSDVLKEGETVEVKVDGVDREARRLSLALAEVSRAAEEEEKSVASFRQQATSSSKESMGSFGDLLKAKIEEKRLEHHHHHH”, the “soluble on expression in E. coli” value is reported as “not soluble”.

With “MGSDKIHHHHHHAEEQVYSESEVSTVLSKLEKEAISEAAAEQYTVVDRKEDAWGMKHLKLEKQTEGVTVDSDNVIIHLDRNGAVTSVTGNPVDQVVKIQSVDAIGEEGVKKIIASDNPETKDLVFLAIDKRVNNEGQLFYKVRVTSSPTGDPVSLVYKVNATDGTIMEKQDLTEHVGSEVTLKNSFQVAFNVPVEKSNTGIALHGTDNTGVYHAVVDGKNNYSIIQAPSLVALNQNAVDAYTHGKFVKTYYEDHFQRHSIDDRGMPILSVVDEQHPDAYDNAFWDGKAMRYGETSTPTGKTYASSLDVVGHEMTHGVTEHTAGLEYLGQSGALNESYSDLMGYIISGASNPEIGADTQSVDRKTGIRNLQTPSKHGQPETMAQYDDRARYKGTPYYDQGGVHYNSGIINRIGYTIIQNLGIEKAQTIFYSSLVNYLTPKAQFSDARDAMLAAAKVQYGDEAASVVSAAFNSAGIGAKEDIQVNQPSESVLVNE” the “soluble on expression in E. coli” value was “not soluble”.

In the case of “MTYCLGIVTQAGLIMAADSRTNAGIDYISTYQKLFDFSLPGDRTIVICCSGNLSITQAVLSQLRRDLAGHFDINLHSLPTMYDLARYLGQKVRQLQESDRDWLKQDGIDFYCNFLLGGQIRGGPIELYLVYGQGNCIHATPETPYLQIGETKYGKPILDRTISFDTSLDMAAKCALMSLDSTMRSNLSVGPPLNLARYERDSLVAPMLVQFPAGHEYLVEMRRRWEISLKDAFMRLPDIDWSRQLMRSLSPVSESVP”, the “soluble on expression in E. coli” value is reported as “not soluble”.

For “MSPKARWQFWIDRGGTFTDIVARSPDGKLITHKLLSEDPAHYEDAAMHGIRQILGLSENEPFPSEDVEAIKMGTTVGTNALLERKGERIVLVITKGFGDALRIGYQNRPDIFSQKIELPDQLYERVIEVSGRYSADGEEIVPLELESAKKELEEAYKAGIRSAAVILMHSYRYPEHELMLGRLATEIG”, the “soluble on expression in E. coli” value was “not soluble”.

For “MNHTSFRAIVVNETENHQFVRKVVEREVSSLPEGDVFIQVHYSSLNYKDALSATGNKGVTRTYPHTPGIDAAGVVVSSEDATIKAGDQVIVTGYDLGMNTSGGFGEYIRVPSSWVVPLPEGMSLKESMMYGTAGFTAALSVYKLIGAGVKPSMGDVLVTGATGGVGSVAVSILSKLGFNVVGATGKMEEEDMLLRLGAKKVIHRAELNDESGSPMLKGIYAGVIDTVGGHMLETALKTVKYGGCVTTCGNVAGQELQTTVYPFILRGISLLGIDSVQCPVDVRRDVWTLLAKEWGNKELLSYTEECTLEELEKKFALILQGKLKGRTVVKI”, the “soluble on expression in E. coli” value was “not soluble”.

— the DeepSol protein solubility set
